Experimental data as given in US20100184658A1 (published 2010).

Key:
Experiment in all cases: cell-based or functional assay
PLK1 Polo-like kinase 1 = PLK1 Polo-like kinase 1 (UniProt P53350 1-603, limits assumed)
[1] = biological target: T1, SGK (SGK1) Serum/glucocorticoid regulated kinase (human (printed as (h)), UniProt O00141 60-431, limits assumed)
T1 sequence (looked up): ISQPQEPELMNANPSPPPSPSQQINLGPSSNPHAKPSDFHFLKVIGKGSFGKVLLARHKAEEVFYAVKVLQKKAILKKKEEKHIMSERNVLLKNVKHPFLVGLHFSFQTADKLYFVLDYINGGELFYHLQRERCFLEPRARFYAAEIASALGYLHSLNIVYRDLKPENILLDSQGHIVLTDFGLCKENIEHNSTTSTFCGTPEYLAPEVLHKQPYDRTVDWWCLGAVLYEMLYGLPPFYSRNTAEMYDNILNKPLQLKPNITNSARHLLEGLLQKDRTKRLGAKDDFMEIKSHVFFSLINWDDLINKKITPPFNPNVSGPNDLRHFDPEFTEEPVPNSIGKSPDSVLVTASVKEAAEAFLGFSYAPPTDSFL

[2] = biological target: MINK1 Misshapen-like kinase 1 (UniProt Q8N4C8 1-320, limits assumed)
MINK1 Misshapen-like kinase 1, sequence (Q8N4C8 1-320 limits assumed): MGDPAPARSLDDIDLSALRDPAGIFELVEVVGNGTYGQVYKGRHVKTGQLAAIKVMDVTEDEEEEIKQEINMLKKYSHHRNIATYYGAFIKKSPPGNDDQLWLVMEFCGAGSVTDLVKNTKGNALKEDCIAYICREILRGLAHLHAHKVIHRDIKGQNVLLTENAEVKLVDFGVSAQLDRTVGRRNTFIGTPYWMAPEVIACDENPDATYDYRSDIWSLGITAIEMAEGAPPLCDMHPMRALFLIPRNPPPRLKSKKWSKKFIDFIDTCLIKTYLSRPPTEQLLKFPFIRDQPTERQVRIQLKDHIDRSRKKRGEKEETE

[3] = biological target: BRAF V-raf murine sarcoma viral oncogene homolog B1 (UniProt P15056 416-766, limits assumed)
BRAF V-raf murine sarcoma viral oncogene homolog B1, sequence (P15056 416-766 limits assumed): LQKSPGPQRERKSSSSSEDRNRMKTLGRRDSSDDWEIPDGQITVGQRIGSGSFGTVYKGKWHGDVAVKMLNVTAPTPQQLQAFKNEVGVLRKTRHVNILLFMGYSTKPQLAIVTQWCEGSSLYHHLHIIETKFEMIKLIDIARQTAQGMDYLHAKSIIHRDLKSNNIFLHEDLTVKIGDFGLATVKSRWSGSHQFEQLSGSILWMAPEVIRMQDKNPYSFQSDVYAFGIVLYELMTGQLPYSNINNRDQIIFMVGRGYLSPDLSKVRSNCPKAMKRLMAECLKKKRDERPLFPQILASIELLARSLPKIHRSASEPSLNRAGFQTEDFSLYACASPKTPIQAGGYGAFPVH

[4] = biological target: T2, TAOK2 (TAO1) TAO kinase 2 (UniProt Q9UL54 1-314, limits assumed)
T2 sequence (looked up): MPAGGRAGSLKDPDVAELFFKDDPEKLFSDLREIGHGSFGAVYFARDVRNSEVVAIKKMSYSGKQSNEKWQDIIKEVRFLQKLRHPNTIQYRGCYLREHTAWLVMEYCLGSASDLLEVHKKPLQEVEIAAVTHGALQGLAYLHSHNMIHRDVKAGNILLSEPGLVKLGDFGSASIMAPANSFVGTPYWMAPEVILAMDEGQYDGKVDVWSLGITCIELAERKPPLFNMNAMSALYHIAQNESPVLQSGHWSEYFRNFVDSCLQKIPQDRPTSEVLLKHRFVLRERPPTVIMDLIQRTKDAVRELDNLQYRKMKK

[5] = biological target: MAP3K8 (COT) Mitogen-activated protein kinase kinase kinase 8 (UniProt P41279 30-397, limits assumed)
MAP3K8 (COT) Mitogen-activated protein kinase kinase kinase 8, sequence (P41279 30-397 limits assumed): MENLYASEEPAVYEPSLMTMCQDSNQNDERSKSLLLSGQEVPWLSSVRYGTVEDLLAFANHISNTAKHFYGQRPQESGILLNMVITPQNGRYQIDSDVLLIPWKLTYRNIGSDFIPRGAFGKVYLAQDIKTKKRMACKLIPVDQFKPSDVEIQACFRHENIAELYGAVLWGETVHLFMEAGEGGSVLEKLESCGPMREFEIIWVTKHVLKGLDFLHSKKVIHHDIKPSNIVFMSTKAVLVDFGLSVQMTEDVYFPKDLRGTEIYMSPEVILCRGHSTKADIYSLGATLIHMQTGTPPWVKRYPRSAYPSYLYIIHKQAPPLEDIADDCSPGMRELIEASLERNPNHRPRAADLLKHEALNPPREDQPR

[6] = biological target: CAMK1D (CaMKI delta) Calcium/calmodulin-dependent protein kinase I delta (UniProt Q8IU85 1-385, limits assumed)
CAMK1D (CaMKI delta) Calcium/calmodulin-dependent protein kinase I delta, sequence (Q8IU85 whole entry, stated change not applied): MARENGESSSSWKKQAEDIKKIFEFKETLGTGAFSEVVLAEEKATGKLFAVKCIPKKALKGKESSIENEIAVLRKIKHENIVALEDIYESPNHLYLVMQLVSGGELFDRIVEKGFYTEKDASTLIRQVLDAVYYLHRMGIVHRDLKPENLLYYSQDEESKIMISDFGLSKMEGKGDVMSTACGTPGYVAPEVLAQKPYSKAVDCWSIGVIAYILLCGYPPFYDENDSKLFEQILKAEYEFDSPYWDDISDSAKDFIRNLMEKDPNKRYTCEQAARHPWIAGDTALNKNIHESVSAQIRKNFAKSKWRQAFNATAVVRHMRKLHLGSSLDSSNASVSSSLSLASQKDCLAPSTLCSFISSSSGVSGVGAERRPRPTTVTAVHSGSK

[7] = biological target: STK25 (YSK1) Serine/threonine kinase 25 (STE20 homolog, yeast) (UniProt O00506 1-426, limits assumed)
STK25 (YSK1) Serine/threonine kinase 25 (STE20 homolog, yeast), sequence (O00506 whole entry): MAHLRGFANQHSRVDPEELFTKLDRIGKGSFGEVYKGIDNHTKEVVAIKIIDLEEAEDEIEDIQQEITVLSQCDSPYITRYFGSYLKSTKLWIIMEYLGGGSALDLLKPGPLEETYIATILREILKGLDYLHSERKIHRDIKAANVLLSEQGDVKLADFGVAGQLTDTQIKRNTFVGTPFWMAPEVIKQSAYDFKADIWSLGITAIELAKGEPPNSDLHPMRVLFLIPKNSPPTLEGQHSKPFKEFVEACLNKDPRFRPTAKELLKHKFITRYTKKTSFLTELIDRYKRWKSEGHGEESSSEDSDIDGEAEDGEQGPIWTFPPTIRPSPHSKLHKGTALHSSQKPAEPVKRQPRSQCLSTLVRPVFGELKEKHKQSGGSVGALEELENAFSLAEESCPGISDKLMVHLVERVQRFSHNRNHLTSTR

[8] = biological target: T3, PHKG2 Phosphorylase kinase, gamma 2 (UniProt P15735 1-406, limits assumed)
T3 sequence (looked up): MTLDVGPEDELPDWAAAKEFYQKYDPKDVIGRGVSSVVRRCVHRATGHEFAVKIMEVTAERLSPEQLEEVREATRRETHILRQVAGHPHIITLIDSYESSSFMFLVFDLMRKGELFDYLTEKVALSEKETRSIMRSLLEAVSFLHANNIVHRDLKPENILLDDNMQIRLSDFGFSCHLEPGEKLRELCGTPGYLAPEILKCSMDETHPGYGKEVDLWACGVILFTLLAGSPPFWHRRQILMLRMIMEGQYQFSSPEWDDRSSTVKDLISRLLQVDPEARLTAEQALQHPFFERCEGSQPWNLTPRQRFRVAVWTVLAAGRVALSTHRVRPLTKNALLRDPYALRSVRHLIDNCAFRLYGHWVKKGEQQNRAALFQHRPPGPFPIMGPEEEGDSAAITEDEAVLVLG

RPS6KA5 (MSK1) = RPS6KA5 (MSK1) (UniProt O75582 1-802, limits assumed)
BRSK1 (SAD1) = biological target: T4, BRSK1 (SAD1) (UniProt Q8TDC3 1-778, limits assumed)
T4 sequence (looked up): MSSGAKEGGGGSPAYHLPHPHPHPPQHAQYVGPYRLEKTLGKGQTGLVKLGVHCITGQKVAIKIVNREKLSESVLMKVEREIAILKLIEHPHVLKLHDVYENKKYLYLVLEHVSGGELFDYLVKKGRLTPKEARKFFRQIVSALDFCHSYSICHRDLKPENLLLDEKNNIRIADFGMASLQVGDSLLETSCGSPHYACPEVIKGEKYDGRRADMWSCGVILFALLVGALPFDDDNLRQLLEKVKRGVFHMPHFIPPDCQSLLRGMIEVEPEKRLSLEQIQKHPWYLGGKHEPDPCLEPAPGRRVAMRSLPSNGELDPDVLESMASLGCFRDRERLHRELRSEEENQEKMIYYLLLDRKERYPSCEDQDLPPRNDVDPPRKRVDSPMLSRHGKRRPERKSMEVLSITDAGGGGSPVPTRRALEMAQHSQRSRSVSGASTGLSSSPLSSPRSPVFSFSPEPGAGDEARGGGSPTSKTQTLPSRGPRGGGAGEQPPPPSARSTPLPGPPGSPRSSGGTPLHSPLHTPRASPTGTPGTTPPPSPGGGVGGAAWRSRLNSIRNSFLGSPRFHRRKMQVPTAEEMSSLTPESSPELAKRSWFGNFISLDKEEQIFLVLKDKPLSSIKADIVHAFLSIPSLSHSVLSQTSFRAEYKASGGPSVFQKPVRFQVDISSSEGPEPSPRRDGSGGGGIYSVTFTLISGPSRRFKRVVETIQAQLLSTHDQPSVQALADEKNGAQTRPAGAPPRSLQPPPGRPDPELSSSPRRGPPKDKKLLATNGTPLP

[9] = biological target: MAPK14 (p38 alpha) Mitogen-activated protein kinase 14 (UniProt Q16539 1-360)
MAPK14 (p38 alpha) Mitogen-activated protein kinase 14, sequence (Q16539 whole entry): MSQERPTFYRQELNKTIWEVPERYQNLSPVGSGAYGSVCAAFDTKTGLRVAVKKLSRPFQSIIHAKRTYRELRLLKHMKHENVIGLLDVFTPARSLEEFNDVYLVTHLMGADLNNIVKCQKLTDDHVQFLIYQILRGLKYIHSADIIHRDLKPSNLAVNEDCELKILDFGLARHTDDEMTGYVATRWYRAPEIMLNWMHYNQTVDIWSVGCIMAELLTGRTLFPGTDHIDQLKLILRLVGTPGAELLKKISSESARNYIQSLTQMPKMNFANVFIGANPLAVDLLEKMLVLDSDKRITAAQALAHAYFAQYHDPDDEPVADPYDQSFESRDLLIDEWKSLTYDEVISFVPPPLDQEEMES

NEK7 = NEK7 (UniProt Q8TDX7 1-302, limits assumed)
NEK7, sequence (Q8TDX7 whole entry): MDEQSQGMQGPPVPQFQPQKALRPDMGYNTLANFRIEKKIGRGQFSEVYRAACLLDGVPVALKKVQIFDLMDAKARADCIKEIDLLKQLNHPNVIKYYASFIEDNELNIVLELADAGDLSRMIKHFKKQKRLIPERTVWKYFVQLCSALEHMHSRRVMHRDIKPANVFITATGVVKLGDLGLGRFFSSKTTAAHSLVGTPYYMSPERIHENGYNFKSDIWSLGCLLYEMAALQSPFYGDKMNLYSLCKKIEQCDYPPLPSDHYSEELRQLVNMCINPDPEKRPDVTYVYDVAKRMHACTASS

MYLK2 (skMLCK) = MYLK2 (skMLCK) (UniProt Q9H1R3 1-596, limits assumed)
MYLK2 (skMLCK), sequence (Q9H1R3 whole entry): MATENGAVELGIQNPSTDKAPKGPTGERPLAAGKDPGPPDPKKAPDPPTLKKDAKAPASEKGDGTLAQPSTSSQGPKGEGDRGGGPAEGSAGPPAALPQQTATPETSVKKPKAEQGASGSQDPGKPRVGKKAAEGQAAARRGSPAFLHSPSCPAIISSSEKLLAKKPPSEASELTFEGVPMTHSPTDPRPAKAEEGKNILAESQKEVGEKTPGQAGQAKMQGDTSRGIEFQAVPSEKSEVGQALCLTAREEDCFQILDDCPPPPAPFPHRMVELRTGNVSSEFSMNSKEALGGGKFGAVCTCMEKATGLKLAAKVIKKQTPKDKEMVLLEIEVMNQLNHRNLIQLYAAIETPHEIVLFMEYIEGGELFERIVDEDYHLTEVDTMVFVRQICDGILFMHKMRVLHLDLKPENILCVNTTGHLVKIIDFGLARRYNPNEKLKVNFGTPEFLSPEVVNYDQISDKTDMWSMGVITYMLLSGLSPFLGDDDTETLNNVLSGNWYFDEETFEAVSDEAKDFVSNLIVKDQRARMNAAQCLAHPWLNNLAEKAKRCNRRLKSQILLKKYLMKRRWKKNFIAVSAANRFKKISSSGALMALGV

CHEK2 (CHK2) = CHEK2 (CHK2) (UniProt O96017 1-543, limits assumed)
CHEK2 (CHK2), sequence (O96017 whole entry): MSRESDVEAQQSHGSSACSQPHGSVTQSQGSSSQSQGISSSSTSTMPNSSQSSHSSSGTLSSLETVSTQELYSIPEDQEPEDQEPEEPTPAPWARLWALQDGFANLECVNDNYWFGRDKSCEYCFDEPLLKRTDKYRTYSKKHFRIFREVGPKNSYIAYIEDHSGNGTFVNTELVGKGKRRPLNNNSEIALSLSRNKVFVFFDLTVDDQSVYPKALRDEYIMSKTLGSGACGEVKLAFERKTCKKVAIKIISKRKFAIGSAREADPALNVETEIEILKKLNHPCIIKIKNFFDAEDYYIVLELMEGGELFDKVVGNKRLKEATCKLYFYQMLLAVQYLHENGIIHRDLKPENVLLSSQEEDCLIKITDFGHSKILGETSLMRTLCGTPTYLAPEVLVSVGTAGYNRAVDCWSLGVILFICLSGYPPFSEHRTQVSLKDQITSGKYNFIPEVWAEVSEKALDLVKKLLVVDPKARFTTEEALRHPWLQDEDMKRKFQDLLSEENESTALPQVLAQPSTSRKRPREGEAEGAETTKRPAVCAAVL

DAPK3 (ZIPK) = DAPK3 (ZIPK) (UniProt O43293 1-454, limits assumed)
DAPK3 (ZIPK), sequence (O43293 whole entry): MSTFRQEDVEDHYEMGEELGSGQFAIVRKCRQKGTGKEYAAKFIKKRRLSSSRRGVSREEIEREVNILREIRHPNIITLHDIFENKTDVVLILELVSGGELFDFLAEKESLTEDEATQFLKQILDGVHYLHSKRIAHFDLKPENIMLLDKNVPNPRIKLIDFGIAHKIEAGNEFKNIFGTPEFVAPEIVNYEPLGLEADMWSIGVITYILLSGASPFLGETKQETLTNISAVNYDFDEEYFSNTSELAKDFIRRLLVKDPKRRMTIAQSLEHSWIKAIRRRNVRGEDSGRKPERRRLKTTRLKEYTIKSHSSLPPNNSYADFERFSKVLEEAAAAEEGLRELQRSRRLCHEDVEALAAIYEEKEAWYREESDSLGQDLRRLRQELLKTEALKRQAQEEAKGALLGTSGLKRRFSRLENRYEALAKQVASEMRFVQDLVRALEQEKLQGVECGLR

PLK1 Polo-like kinase 1, sequence (P53350 whole entry): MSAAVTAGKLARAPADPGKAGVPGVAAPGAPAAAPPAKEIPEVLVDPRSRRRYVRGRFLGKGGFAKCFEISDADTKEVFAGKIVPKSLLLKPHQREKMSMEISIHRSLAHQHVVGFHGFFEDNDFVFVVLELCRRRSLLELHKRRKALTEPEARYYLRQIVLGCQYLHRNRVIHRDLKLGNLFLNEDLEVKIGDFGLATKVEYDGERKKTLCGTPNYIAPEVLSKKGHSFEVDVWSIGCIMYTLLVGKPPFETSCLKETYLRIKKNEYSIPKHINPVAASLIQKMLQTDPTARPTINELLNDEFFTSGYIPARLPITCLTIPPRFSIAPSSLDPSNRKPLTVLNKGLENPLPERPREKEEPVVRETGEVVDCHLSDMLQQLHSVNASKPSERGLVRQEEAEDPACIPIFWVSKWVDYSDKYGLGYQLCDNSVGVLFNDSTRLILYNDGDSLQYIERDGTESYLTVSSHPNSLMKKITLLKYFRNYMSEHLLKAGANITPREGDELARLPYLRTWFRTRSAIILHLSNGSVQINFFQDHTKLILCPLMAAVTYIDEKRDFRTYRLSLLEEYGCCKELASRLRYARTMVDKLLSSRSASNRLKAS

B1: D3 peptide (peptide)
peptide: SGRPPMIVWFNRPFLIAVSHTHGQTILFMAKVINPVGA
% Inhibition mean (PLK1 Polo-like kinase 1): 51% | % Inhibition mean [1]: 100% | % Inhibition mean [2]: 101% | % Inhibition mean [3]: 100% | % Inhibition mean [4]: 100% | % Inhibition mean [5]: 98.6% | % Inhibition mean [6]: 98% | % Inhibition mean [7]: 93.1% | % Inhibition mean [8]: 87% | % Inhibition mean (RPS6KA5 (MSK1)): 85% | % Inhibition mean (BRSK1 (SAD1)): 83.5% | % Inhibition mean [9]: 83% | % Inhibition mean (NEK7): 73.8% | % Inhibition mean (MYLK2 (skMLCK)): 64.6% | % Inhibition mean (CHEK2 (CHK2)): 62.1% | % Inhibition mean (DAPK3 (ZIPK)): 62%
